# Reference: paper PMC9599461, “Stereoselectivity in the Membrane Transport of Phenylethylamine Derivatives by Human Monoamine Transporters and Organic Cation Transporters 1, 2, and 3” (Biomolecules, 2022)
# “And” between values parts separate entries of the source, which are not always exact repeats. Equal values may be shown once.
# T1: OCT3 (Homo sapiens, UniProt O75751)
# T1 sequence (O75751 1-556): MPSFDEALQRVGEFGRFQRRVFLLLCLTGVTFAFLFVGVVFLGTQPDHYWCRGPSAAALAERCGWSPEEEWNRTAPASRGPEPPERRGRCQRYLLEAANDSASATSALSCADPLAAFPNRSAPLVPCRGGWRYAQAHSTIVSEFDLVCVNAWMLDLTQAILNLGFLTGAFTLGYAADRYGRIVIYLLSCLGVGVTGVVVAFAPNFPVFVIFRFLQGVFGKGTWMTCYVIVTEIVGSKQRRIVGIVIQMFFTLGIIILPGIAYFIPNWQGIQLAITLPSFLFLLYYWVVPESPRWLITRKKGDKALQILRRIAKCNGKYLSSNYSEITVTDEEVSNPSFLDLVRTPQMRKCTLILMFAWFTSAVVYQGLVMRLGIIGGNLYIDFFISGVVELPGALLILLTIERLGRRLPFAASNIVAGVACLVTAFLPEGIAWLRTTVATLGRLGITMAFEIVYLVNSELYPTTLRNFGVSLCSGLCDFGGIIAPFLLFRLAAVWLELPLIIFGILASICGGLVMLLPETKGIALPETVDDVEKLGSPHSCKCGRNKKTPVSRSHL
# T2: OCT2 (wild-type) (Homo sapiens, UniProt O15244)
# T2 sequence (O15244 1-555 S270A): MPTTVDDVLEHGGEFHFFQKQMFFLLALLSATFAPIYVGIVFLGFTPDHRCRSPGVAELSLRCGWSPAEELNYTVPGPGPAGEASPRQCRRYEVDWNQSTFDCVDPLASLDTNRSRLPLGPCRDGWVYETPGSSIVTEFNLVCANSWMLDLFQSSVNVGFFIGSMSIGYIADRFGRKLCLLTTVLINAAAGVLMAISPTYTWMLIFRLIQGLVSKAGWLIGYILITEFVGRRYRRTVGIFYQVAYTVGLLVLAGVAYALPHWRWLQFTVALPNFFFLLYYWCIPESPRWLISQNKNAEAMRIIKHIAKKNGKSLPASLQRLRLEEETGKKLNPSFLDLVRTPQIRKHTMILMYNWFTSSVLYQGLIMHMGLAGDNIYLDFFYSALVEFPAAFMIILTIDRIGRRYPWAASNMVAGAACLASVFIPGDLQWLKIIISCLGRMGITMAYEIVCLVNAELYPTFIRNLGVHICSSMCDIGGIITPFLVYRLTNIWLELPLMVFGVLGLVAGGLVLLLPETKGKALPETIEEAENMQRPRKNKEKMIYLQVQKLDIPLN
# B1: OCT1 (Homo sapiens) (protein)
# chain: MPTVDDILEQVGESGWFQKQAFLILCLLSAAFAPICVGIVFLGFTPDHHCQSPGVAELSQRCGWSPAEELNYTVPGLGPAGEAFLGQCRRYEVDWNQSALSCVDPLASLATNRSHLPLGPCQDGWVYDTPGSSIVTEFNLVCADSWKLDLFQSCLNAGFLFGSLGVGYFADRFGRKLCLLGTVLVNAVSGVLMAFSPNYMSMLLFRLLQGLVSKGNWMAGYTLITEFVGSGSRRTVAIMYQMAFTVGLVALTGLAYALPHWRWLQLAVSLPTFLFLLYYWCVPESPRWLLSQKRNTEAIKIMDHIAQKNGKLPPADLKMLSLEEDVTEKLSPSFADLFRTPRLRKRTFILMYLWFTDSVLYQGLILHMGATSGNLYLDFLYSALVEIPGAFIALITIDRVGRIYPMAMSNLLAGAACLVMIFISPDLHWLNIIIMCVGRMGITIAIQMICLVNAELYPTFVRNLGVMVCSSLCDIGGIITPFIVFRLREVWQALPLILFAVLGLLAAGVTLLLPETKGVALPETMKDAENLGRKAKPKENTIYLKVQTSEPSGT
# B2: OCT3 (Homo sapiens) (protein)
# chain: T1 sequence (O75751 1-556)
# Tests used:
# Alpha-2 adrenoreceptor = system: Alpha-2 adrenoreceptor; design: method as in PMID 2833972; details: cited from earlier work
# Alpha-1 adrenoreceptor = details: cited from earlier work
# OCT3 = target: T1, OCT3; assay: Stereoselective uptake into OCT3-overexpressing HEK293 cells; details: OCT3; ratio between enantiomers, given as for (R) or for 1;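 note: intracellular accumulation in HEK293 cells measured by chiral HPLC-MS/MS after a 2 min substrate exposure at 37 °C, uptake normalized to total protein (bicinchoninic acid assay)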
# OCT2 (wild-type) = target: T2, OCT2 (wild-type); assay: Stereoselective uptake into OCT2 (wild-type)-overexpressing HEK293 cells; details: human, 100 μM racemic substance, two minutes, uptake ratio of enantiomers, given as for (R)
# OCT2 A270S variant [1] = assay: in vitro; details: human, Stereoselectivity OCT2_A270S, 100 μM racemic substance, two minutes; uptake ratio of enantiomers, given as for (R)
# SERT = SERT (Homo sapiens, UniProt P31645); assay: Stereoselective uptake into SERT-overexpressing HEK293 cells; details: SERT; ratio between enantiomers, given as for (R) or for 1;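 note: uptake into HEK293 cells stably expressing human SERT over 2 min, enantiomers measured in cell lysate by chiral HPLC-MS/MS, normalized to total protein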
# OCT2 A270S variant [2] = assay: Stereoselective uptake into OCT2 A270S variant-overexpressing HEK293 cells; details: human, HEK293 cells stably overexpressing human OCT2 A270S variant;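 note: uptake into HEK293 cells stably overexpressing human OCT2 variants, intracellular enantiomers quantified by chiral HPLC-MS/MS and normalized to total protein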
# CNC[C@@H](O)c1ccc(O)cc1 = assay: cells, lysate or membranes; details: other: HEK293 cells overexpressing human SERT; racemic substrate, two minutes; net uptake minus empty vector control; 37.0 °C
# NC[C@@H](O)c1ccc(O)cc1 = assay: cells, lysate or membranes; details: other: HEK293 cells overexpressing human SERT; racemic substrate, two minutes; net uptake minus empty vector control; 37.0 °C
# COc1cc(C(O)CN)ccc1O = assay: cells, lysate or membranes; details: other: HEK293 cells overexpressing human SERT; racemic substrate, two minutes; net uptake minus empty vector control; 37.0 °C
# CNCC(O)c1ccc(O)c(OC)c1 = assay: cells, lysate or membranes; details: other: HEK293 cells overexpressing human SERT; racemic substrate, two minutes; net uptake minus empty vector control; 37.0 °C
# NCC(O)c1cccc(O)c1 = assay: cells, lysate or membranes; details: other: HEK293 cells overexpressing human SERT; racemic substrate, two minutes; net uptake minus empty vector control; 37.0 °C
# NC[C@H](O)c1ccc(O)cc1 = assay: cells, lysate or membranes; details: other: HEK293 cells overexpressing human SERT; racemic substrate, two minutes; net uptake minus empty vector control; 37.0 °C
# [3] = system: [H][C@](O)(CNC)c1ccc(O)cc1; assay: cells, lysate or membranes; details: other: HEK293 cells overexpressing human SERT; racemic substrate, two minutes; net uptake minus empty vector control; 37.0 °C
# [4] = substrate: CNC[C@H](O)c1cccc(O)c1; assay: cells, lysate or membranes; details: racemic substrate, two minutes, net uptake minus empty vector control, 37.0 °C
# [5] = substrate: [H][C@](O)(CNC)c1ccc(O)cc1; assay: cells, lysate or membranes; details: racemic substrate, two minutes, net uptake minus empty vector control, 37.0 °C
# [6] = substrate: CNC[C@@H](O)c1ccc(O)cc1; assay: cells, lysate or membranes; details: racemic substrate, two minutes, net uptake minus empty vector control, 37.0 °C
# [7] = substrate: NC[C@H](O)c1ccc(O)cc1; assay: cells, lysate or membranes; details: racemic substrate, two minutes, net uptake minus empty vector control, 37.0 °C
# [8] = substrate: CNC[C@@H](O)c1cccc(O)c1; assay: cells, lysate or membranes; details: racemic substrate, two minutes, net uptake minus empty vector control, 37.0 °C
# [9] = substrate: NC[C@@H](O)c1ccc(O)cc1; assay: cells, lysate or membranes; details: racemic substrate, two minutes, net uptake minus empty vector control, 37.0 °C
# [10] = substrate: COc1cc(C(O)CN)ccc1O; assay: cells, lysate or membranes; details: racemic substrate, two minutes, net uptake minus empty vector control, 37.0 °C
# [11] = substrate: CNCC(O)c1ccc(O)c(OC)c1; assay: cells, lysate or membranes; details: racemic substrate, two minutes, net uptake minus empty vector control, 37.0 °C
# [12] = substrate: NCC(O)c1cccc(O)c1; assay: cells, lysate or membranes; details: other: HEK293 cells overexpressing human OCT3; racemic substrate, two minutes; net uptake minus empty vector control; 37.0 °C
# [13] = other: HEK293 cells overexpressing human OCT1
# [14] = other: HEK293 cells overexpressing human OCT3
molecule,measurement,setting,value
NCC(O)c1cccc(O)c1 (stereo not shown) [Norphenylephrine],Enantiomeric Activity Ratio (R/S) in Receptor Binding Alpha-2,Alpha-2 adrenoreceptor,3
same,Enantiomeric Activity Ratio (R/S) in Receptor Binding Alpha-1,Alpha-1 adrenoreceptor,8
same,Stereoselectivity Vmax,OCT3,3.9 fold
same,"selectivity ratio at 2 min, 100 μM",OCT2 (wild-type); Stereoselectivity OCT2_WT,1.54
same,"selectivity ratio at 2 min, 100 μM",OCT2 A270S variant [1],1.46
NCC(O)c1ccc(O)cc1 (stereo not shown) [Octopamine],Enantiomeric Activity Ratio (R/S) in Receptor Binding Alpha-2,Alpha-2 adrenoreceptor,3
same,Enantiomeric Activity Ratio (R/S) in Receptor Binding Alpha-1,Alpha-1 adrenoreceptor,5
same,Stereoselectivity Vmax,SERT,2.4 fold
same,"selectivity ratio at 2 min, 100 μM",OCT2 A270S variant [2],1.69
same,"selectivity ratio at 2 min, 100 μM","OCT2 (wild-type); HEK293 cells stably overexpressing human wild-type OCT2, Stereoselectivity OCT2_WT",1.74
CNC[C@H](O)c1cccc(O)c1 [Phenylephrine],Enantiomeric Activity Ratio (R/S) in Receptor Binding Alpha-2,Alpha-2 adrenoreceptor,45
same,Enantiomeric Activity Ratio (R/S) in Receptor Binding Alpha-1,Alpha-1 adrenoreceptor,420
same,Stereoselectivity Vmax,OCT3,3.3 fold
same,"selectivity ratio at 2 min, 100 μM",OCT2 (wild-type); Stereoselectivity OCT2_WT,1.3
same,"selectivity ratio at 2 min, 100 μM",OCT2 A270S variant [1],1.16
SERT (Homo sapiens),Km,CNC[C@@H](O)c1ccc(O)cc1,804 µM
same,Vmax,CNC[C@@H](O)c1ccc(O)cc1,491 pmol × mg Protein^−1 × min^−1
same,Km,NC[C@@H](O)c1ccc(O)cc1,42.9 µM
same,Vmax,NC[C@@H](O)c1ccc(O)cc1,104 pmol × mg Protein^−1 × min^−1
same,Km,COc1cc(C(O)CN)ccc1O,42.0 µM and 38.7 µM
same,Vmax,COc1cc(C(O)CN)ccc1O,93.6 pmol × mg Protein^−1 × min^−1 and 157 pmol × mg Protein^−1 × min^−1
same,Km,CNCC(O)c1ccc(O)c(OC)c1,151 µM and 165 µM
same,Vmax,CNCC(O)c1ccc(O)c(OC)c1,87.4 pmol × mg Protein^−1 × min^−1 and 94.5 pmol × mg Protein^−1 × min^−1
same,Km,NCC(O)c1cccc(O)c1,333 µM and 277 µM
same,Vmax,NCC(O)c1cccc(O)c1,400 pmol × mg Protein^−1 × min^−1 and 508 pmol × mg Protein^−1 × min^−1
same,Km,NC[C@H](O)c1ccc(O)cc1,59.6 µM
same,Vmax,NC[C@H](O)c1ccc(O)cc1,247 pmol × mg Protein^−1 × min^−1
same,Km,[3],528 µM
same,Vmax,[3],363 pmol × mg Protein^−1 × min^−1
B1,Km,[4]; [13],175 µM
same,Vmax,[4]; [13],1710 pmol × mg Protein^−1 × min^−1
same,Km,[5]; [13],86.7 µM
same,Vmax,[5]; [13],1817 pmol × mg Protein^−1 × min^−1
same,Km,[6]; [13],111 µM
same,Vmax,[6]; [13],1348 pmol × mg Protein^−1 × min^−1
same,Km,[7]; [13],291 µM
same,Vmax,[7]; [13],1318 pmol × mg Protein^−1 × min^−1
same,Km,[8]; [13],178 µM
same,Vmax,[8]; [13],1578 pmol × mg Protein^−1 × min^−1
same,Km,[9]; [13],281 µM
same,Vmax,[9]; [13],1211 pmol × mg Protein^−1 × min^−1
same,Km,[10]; [13],806 µM and 1279 µM
same,Vmax,[10]; [13],2137 pmol × mg Protein^−1 × min^−1 and 3145 pmol × mg Protein^−1 × min^−1
same,Km,[11]; [13],134 µM and 146 µM
B2,Km,[4]; [14],244 µM
same,Vmax,[4]; [14],2885 pmol × mg Protein^−1 × min^−1
same,Km,[5]; [14],83.5 µM
same,Vmax,[5]; [14],2193 pmol × mg Protein^−1 × min^−1
same,Km,[6]; [14],75.3 µM
same,Vmax,[6]; [14],2090 pmol × mg Protein^−1 × min^−1
same,Km,[7]; [14],25.1 µM
same,Vmax,[7]; [14],972 pmol × mg Protein^−1 × min^−1
same,Km,[8]; [14],205 µM
same,Vmax,[8]; [14],866 pmol × mg Protein^−1 × min^−1
same,Km,[9]; [14],20.1 µM
same,Vmax,[9]; [14],1072 pmol × mg Protein^−1 × min^−1
same,Km,[10]; [14],75.9 µM and 62.4 µM
same,Vmax,[10]; [14],1473 pmol × mg Protein^−1 × min^−1 and 1352 pmol × mg Protein^−1 × min^−1
same,Km,[11]; [14],29.0 µM and 24.4 µM
same,Vmax,[11]; [14],752 pmol × mg Protein^−1 × min^−1 and 635 pmol × mg Protein^−1 × min^−1
same,Km,[12],582 µM and 498 µM
